Source: KR20130033273A (dated 2013)

Target: T1, IGF-1R (Insulin-like growth factor 1 receptor) on the surface of MCF-7 cells (UniProt P08069 31-1367, limits assumed)
T1 construct: whole, on cells; Endogenous receptor of MCF-7 cells; also called MCF-7 세포 표면 IGF-1R 항원; IGF-1 수용체
Experiment: flow cytometry (FACS) on MCF-7 cells, 1 ug/ml antibody, anti-human IgG-FITC

T1 sequence (P08069 31-1367 limits assumed): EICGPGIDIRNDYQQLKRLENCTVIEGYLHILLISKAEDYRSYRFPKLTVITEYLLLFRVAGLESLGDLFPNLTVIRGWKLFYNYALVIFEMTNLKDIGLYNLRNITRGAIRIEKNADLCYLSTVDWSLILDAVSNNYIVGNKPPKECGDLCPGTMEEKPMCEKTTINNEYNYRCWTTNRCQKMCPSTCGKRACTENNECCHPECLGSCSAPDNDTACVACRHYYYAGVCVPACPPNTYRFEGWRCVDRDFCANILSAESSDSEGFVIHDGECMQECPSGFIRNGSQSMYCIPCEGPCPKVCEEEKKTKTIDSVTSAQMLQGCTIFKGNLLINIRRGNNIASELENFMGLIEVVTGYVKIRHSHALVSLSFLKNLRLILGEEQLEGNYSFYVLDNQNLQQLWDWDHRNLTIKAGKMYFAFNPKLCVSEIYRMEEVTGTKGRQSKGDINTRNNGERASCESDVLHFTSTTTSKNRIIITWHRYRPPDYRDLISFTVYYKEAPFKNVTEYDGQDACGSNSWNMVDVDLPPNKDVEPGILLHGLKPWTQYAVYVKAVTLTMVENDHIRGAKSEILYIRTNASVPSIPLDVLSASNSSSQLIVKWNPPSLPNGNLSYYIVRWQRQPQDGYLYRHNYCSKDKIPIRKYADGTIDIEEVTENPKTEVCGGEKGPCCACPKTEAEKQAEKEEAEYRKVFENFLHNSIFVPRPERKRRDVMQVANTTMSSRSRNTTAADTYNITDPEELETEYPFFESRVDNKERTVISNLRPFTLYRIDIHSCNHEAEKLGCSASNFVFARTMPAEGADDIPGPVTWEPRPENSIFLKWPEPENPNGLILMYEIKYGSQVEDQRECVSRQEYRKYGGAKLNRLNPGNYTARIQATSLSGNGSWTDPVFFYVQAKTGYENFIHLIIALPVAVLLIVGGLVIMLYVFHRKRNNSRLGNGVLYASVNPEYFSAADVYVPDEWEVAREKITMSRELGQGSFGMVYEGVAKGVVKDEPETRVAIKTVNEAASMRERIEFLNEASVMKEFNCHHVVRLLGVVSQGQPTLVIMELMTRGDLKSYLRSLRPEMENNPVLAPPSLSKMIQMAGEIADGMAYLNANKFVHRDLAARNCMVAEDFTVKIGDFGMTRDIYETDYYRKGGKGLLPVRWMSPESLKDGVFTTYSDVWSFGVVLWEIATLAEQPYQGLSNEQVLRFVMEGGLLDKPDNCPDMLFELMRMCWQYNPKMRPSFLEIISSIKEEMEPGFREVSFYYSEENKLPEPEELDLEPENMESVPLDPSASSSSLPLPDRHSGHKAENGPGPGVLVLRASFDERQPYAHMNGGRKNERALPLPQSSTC

B1: 항IGF-1R 항체(A12) (antibody, human IgG1, lambda, V domains shown)
VH: EVQLVQSGAEVKKPGSSVKVSCKASGGTFSSYAISWVRQAPGQGLEWMGGIIPIFGTANYAQKFQGRVTITADKSTSTAYMELSSLRSEDTAVYYCARAPLRFLEWSTQDHYYYYYMDVWGKGTTVTVSS
VL: SSELTQDPAVSVALGQTVRITCQGDSLRSYYATWYQQKPGQAPILVIYGENKRPSGIPDRFSGSSSGNTASLTITGAQAEDEADYYCKSRDGSGQHLVFGGGTKLTVLG
notes: IgG form; also called 항암항체(A12); Imclone사(A12) 항IGF-1R 항체
- binding result: binds
